These results are taken from US20150210761A1 (SAMSUNG ELECTRONICS, published 2015).

Numbering of substitutions follows the chain as printed.

The target of test [1] is T1, Ang2 mutant F469 (full-length Ang2) (human, UniProt O15123 19-496, limits assumed).
T1 sequence: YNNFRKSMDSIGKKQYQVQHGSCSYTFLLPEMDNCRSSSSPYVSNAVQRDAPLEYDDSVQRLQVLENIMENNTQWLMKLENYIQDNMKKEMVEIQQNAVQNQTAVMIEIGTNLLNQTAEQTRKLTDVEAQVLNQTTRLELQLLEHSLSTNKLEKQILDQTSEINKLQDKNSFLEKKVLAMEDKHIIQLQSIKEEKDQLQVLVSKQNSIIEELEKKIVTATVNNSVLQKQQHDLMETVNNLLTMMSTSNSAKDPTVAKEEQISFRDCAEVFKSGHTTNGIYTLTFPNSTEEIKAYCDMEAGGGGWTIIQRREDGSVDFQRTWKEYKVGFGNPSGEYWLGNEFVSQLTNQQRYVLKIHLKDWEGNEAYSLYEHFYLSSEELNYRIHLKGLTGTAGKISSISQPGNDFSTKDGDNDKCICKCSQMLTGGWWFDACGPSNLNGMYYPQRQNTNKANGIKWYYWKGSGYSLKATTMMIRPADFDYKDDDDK
The test is described as follows: ELISA; antibody coated, FLAG-tagged full-length Ang2 mutant, anti-FLAG-HRP detection. As for the experimental part: A 96-well MaxiSorp™ flat-bottom plate (Nunc) was coated with 50 μl of each anti-Ang2 antibody (400 nM). After that, the plate was washed five times with 0.05% (v/v) Tween-20-containing PBS (PBST) and then blocked with 1% (v/v) BSA-containing PBS at a room temperature for 2 hours. S417, P419, N421, I434, D448, A449, P452, Y460, N467, K468, or F469 residue of Ang2 (SEQ ID NO: 27) was mutated (substituted) with alanine and tagged with FLAG (N-[…]-C; 1012 Da) and then 250 ng of them was each added to each well to the plate, which was allowed to react at a room temperature for 2 hours.
Thereafter, the plate was washed five times with 0.05% (v/v) Tween-20-containing PBS and then, an HRP-conjugated anti-FLAG antibody (SIGMA) diluted in 1% (v/v) BSA-containing PBS at 1:5,000 ratio (v/v) was added in the amount of 50 μl to each well to react at a room temperature for 1 hour, followed by washing five times with 0.1% (v/v) Tween-20-containing PBS.
Finally, 100 μl of TMB substrate (cell signal) was added to each well of the plate to induce color development for 3 minutes and then, the reaction was ceased by the addition of 100 μl of stop solution (Cell signaling) and OD450 values were measured on a plate reader (Molecular Devices). By comparing binding intensity to mutated Ang2 to binding intensity to non-mutated (native) Ang2, each epitope for the Ang2 antibodies was identified.

The target of a further test is T2, Ang2 RBD mutant N421 (human, UniProt O15123 276-496).
T2 chain: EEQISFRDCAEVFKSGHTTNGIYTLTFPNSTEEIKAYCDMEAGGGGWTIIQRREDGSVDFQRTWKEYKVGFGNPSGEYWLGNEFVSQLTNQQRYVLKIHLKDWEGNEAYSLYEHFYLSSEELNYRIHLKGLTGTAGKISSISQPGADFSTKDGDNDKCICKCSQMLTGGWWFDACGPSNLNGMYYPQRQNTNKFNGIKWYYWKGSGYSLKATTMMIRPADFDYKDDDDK
The test is described as follows: ELISA; antibody coated, FLAG-tagged RBD mutant, anti-FLAG-HRP detection.

For a further test, the target named is T3, Ang2 RBD mutant D448 (human, UniProt O15123 276-496).
T3 chain: T2 chain with A146N, D173A
The description is as above.

The target of another test is T4, Ang2 RBD mutant K468 (human, UniProt O15123 276-496).
T4 chain: T2 chain with A146N, K193A
Described as above.

Another test addresses T5, Ang2 RBD mutant F469 (human, UniProt O15123 276-496).
T5 chain: T2 chain with A146N, F194A
The description is as above.

For a further test, the target named is T6, Ang2 RBD mutant I434 (human, UniProt O15123 276-496).
T6 chain: T2 chain with A146N, I159A
Described as above.

B1: SAIT-ANG2-AB-m8D3 (antibody, V domains shown)
VH: EVQLQQSGPELVKPGDSVKMSCKASGYTFTDYYMKWVRQSHGKSLQWVGEINPKNGDTFYNQIFKGKATLTVDKSSSTAYMQLTSLTSEDSAVYYCTRENDYDVGFFDYWGQGTSVTVSS
VL: TIVMTQTPKFLLVSAGDRITITCKASQSVSNDVAWYQQKPGQSPKLLIYYASNRYPGVPDRFTGSGYGTDFTFTISTVQAEDLAVYFCQQDYTSPWTFGGGTELEIK
notes: also called hybridoma KCLRF-BP-00308
For the molecule B1, in test [1], the “Binding (%) (mutant Ang2 / native Ang2)” value was found to be 41.9%.

B2: SAIT-ANG2-AB-m1A10 (antibody, V domains shown)
VH: QVQLQQSGAELMKPGASVKISCKATDYTFSSYWLEWLIQRPGHGLEWIGEILPGSGSTNYNEKFRGKATFTEDTSSNTAYMQLSSLTSEDSAVYYCARGNHNSYYYAMDYWGQGTSVTVSS
VL: DIVLTQSPASLAVSLGQRATISCRASESVDSYGNSFMHWYQQKPGQPPKLLIYRASNLDSGIPARFSGSGSRTDFTLTINPVEADDVATYYCQQSNEDPLTFGAGTKLELK
notes: also called hybridoma KCLRF-BP-00306
As for B2, the “Binding (%) (mutant Ang2 / native Ang2)” value with Ang2 RBD mutant N421 came to 89.3%; in the test with Ang2 RBD mutant D448, 95.3%; with Ang2 RBD mutant K468, 27.3%; with Ang2 RBD mutant F469 it was 77.9%; in the test with Ang2 RBD mutant I434, 93.2%.
